Reference: patent US20250242017A1, “HISTAMINE AND HRH1 SIGNALING ACTIVITY AS BIOMARKERS AND ASSOCIATED METHODS” (Board of Regents, The University of Texas System, priority 2022, published 2025)

What was measured:
CD8+ T cells = experiment: In vitro co-culture of macrophages with T cells; assay type: cell-based, mouse; conditions: T cells co-cultured with histamine-treated macrophages vs vehicle-treated
Experimental: In vitro co-culture with T cells. Spleens from wild-type C57BL/6 or BALB/c mice were harvested and filtered through a […] cell strainer to generate a single-cell suspension. After red blood cell lysis, splenocytes were counted and plated in complete Roswell Park Memorial Institute 1640 medium supplemented with […] b-mercaptoethanol and 10 mM HEPES onto 12-well plates coated with […] anti-CD3 (clone 145-2C11, BioLegend) and […] anti-CD28 (clone 37N, BioLegend) antibodies. Spleen T cells were activated for 48 hours before co-culture with macrophages. To educate the macrophages, we co-cultured naïve BMDMs with tumor cells at a ratio of 1:1 or with tumor cell-derived conditioned medium for 48 hours. Macrophages were seeded with activated T cells at a ratio of 5:1. After co-culture for another 24 or 48 hours, T cells were collected for flow cytometry analysis.
(§1) Flow cytometry staining and analysis.

peritoneal macrophages = conditions: histamine 10 mM, vs vehicle-treated
Experimental: Macrophage polarization and stimulation. To polarize macrophages toward an M1-like phenotype, we stimulated PBMC-derived macrophages or BMDMs with IFN-g (20 ng/ml, PeproTech) for 48 hours. To induce an M2-like phenotype, we treated THP-1-derived macrophages or BMDMs with IL-4 (20 ng/mL, PeproTech) for 48 hours. […] To stimulate macrophages with tumor cell-derived conditioned medium (TCM), we cultured BMDMs with complete medium containing 50% TCM (volume).
Flow cytometry staining and analysis. Live single cells were sub-gated by staining with Fixable Viability Dye eFluor 450 (eBioscience) for 15 minutes at 4° C. For blocking of Fc receptors, cells were then pre-incubated with purified anti-CD16/32 antibody (clone 93, BioLegend) for 10 minutes on ice before immunostaining. After one wash with flow cytometry buffer, cells were incubated with appropriate dilutions of various combinations of the following antibodies. […]

melanoma patients = experiment: Retrospective Epic SlicerDicer analysis of anti-PD-1/PD-L1-treated melanoma patients; assay type: in vivo, human; conditions: patients taking the medicine during anti-PD-1/PD-L1 treatment vs those who did not
Experimental: Epic SlicerDicer software analysis. Our retrospective study was conducted on melanoma patients encountered during 2016-2017 at The University of Texas MD Anderson Cancer Center, which draws a diverse range of local, regional, national, and international patients. The study population consisted of all melanoma patients with of International Classification of Diseases (ICD) code C43 (10th version). Anonymized aggregate-level data were collected using the SlicerDicer function within MD Anderson Epic electronic medical records. Institutional Review Board approval was therefore waived. Using the Epic SlicerDicer, we identified 9922 patients with a visit diagnosis, billing diagnosis, or active problem list with malignant skin of melanoma (ICD-10-CM:C43, which includes all subgroups). EPIC SlicerDicer was used to further identify 878 of these patients who received anti-PD-1 antibodies (pembrolizumab, nivolumab, or cemiplimab) or anti-PD-L1 antibodies (durvalumab, atezolizumab, or avelumab) treatment during the study period. […] The estimated patient deaths of each subgroup were calculated based on the patient number of each subgroup and the average patient death rate (39%, based on deceased patients out of total patients analyzed). […] The survival time was calculated as the days between the two dates. […]

[1] = system: early-stage breast cancer; experiment: Retrospective analysis of medications in stage 0 or 1 breast cancer patients; assay type: in vivo, human; conditions: poor outcome = recurrence or death; for estimated patient number with poor outcome: based on estimated 2.54% of patients taking the medication; for actual patient number with poor outcome: patients taking the medication
Excerpt: To explore whether some medications have impact on early-stage breast cancer recurrence, we performed a retrospective analysis of the most commonly prescribed medications took by patients with stage 0 or stage 1 breast cancer. Stage 0 and 1 breast cancers are highly treatable early-stage breast cancers and generally have very good prognosis in the first five years. Typically, surgery, radiation, or a combination of the two are the standard treatments. Hormone therapy, depending on the type of cancer cells and additional risk factors, is also an option. To rule out potential impact of the medications on therapies, patients who received treatment other than surgeries were excluded. 1652 patients diagnosed with stage 0 or 1 breast cancer at MDACC between 2016-2021 were enrolled in the study. 29 patients have been diagnosed with cancer recurrence (1.76%) and 3 out of 29 patients were deceased by 2021. Another 13 patients were also deceased, but whether cancer is the cause of their deaths is not clear. Altogether, total 42 patients (2.54%) have poor clinical outcome, including cancer recurrence or death. We first analyzed the 50 most prescribed drugs in USA which include many common drugs such as Aspirin, Simvastatin, and Metformin. About half of the drugs (24) were took by >100 patients based on their electric health record. To cover more medications, we further expanded the drug list by adding the top 20 over-the-counter medicines (OTC) sold on AMAZON website. To explore potential impact of medications on cancer recurrence and patient mortality, we compared the predicated patient numbers with poor clinical outcomes (X-axis) based on the estimated 2.54% (the ratio of total patients with poor outcome to total number of patients) versus the actual patient number with poor outcomes (Y-axis) of each medication (FIG. 15A). Most medications show limited impacts on patients' outcome, including Aspirin (8.5 vs. 8, estimated vs. actual patient number with poor outcome) and Metformin (3.5 vs 4). […] Instead, antihistamine may intercept or delay early-stage breast cancer progression by enhancing immune surveillance.

VISTA+ BMDMs = experiment: VISTA membrane expression on macrophages after Ca2+ flux modulation; assay type: cell-based, mouse
Excerpt: as §1

[2] = system: lung cancer, breast cancer, and colon cancer patients; experiment: Basket trial of anti-PD-1 treatment, response by pre-treatment plasma histamine (n=70); assay type: in vivo, human
Excerpt: (§2) Human samples. The untreated breast cancer samples including tumor tissues and blood plasma from TNBC patients who had undergone a mastectomy before therapy, normal breast tissues from women undergoing cosmetic breast surgery, and blood plasma from colon cancer patients and healthy subjects were collected at the First Affiliated Hospital of Chongqing Medical University. The blood plasma from patients with advanced lung (n=48), colon (n=12) and breast (n=10) cancers were collected pre-anti-PD1 treatment (patients were treated with Camrelizumab between Dec. 24, 2019 and Feb. 27, 2021) at the Beijing Friendship Hospital of Capital Medical. Best percentage change in the sum of the diameters for the selected target lesion is defined by Response Evaluation Criteria in Solid Tumors (RECIST version 1.1) on minimum 2 computed tomographic scans before treatment and 1 computed tomographic scan during treatment. The use of pathological specimens, as well as the review of all pertinent patient records, were approved by the Research Ethics Committee of the First Affiliated Hospital of Chongqing Medical University (project approval number 1005367 2017-012) and the Research Ethics Committee of Beijing Friendship Hospital of Capital Medical University (project approval number 2017-P2-141-01), and written informed consent were obtained from each participant and/or their legal representative, as appropriate.
(§3) Enzyme-linked immunosorbent assay (ELISA). The levels of histamine in cell culture supernatant, serum/plasma, and tissues were detected by Histamine ELISA kits (ENZ-KIT140-0001, Enzo; ab213975, Abcam) according to the manufacturer's instructions.

lung cancer patients = experiment: Responses of anti-PD-1-treated lung cancer patients by plasma histamine; assay type: in vivo, human; conditions: patient count, lung cancer (n = 48)
Excerpt: as §2, §3

colon cancer patients = experiment: Responses of anti-PD-1-treated colon cancer patients by plasma histamine; assay type: in vivo, human; conditions: patient count, colon cancer (n = 12)
Excerpt: as §2, §3

breast cancer patients = experiment: Responses of anti-PD-1-treated breast cancer patients by plasma histamine; assay type: in vivo, human; conditions: patient count, breast cancer (n = 10)
Excerpt: as §2, §3

[3] = patients with high levels of plasma histamine (>0.6 ng/mL)
[4] = patients with low levels of plasma histamine (<0.3 ng/mL)
[5] = Histamine Medium (0.3-0.6 ng/ml)
[6] = Histamine Low (<0.3 ng/ml), no patients in group

NCCc1c[nH]cn1 [histamine]
T cell activation (CD8+ T cells): significantly suppressed T cell activation
M2-like marker CD206 and M1-like marker MHCII (peritoneal macrophages): increased M2-like marker CD206 and reduced M1-like marker MHCII

CC(=O)Oc1ccccc1C(=O)O [aspirin]
death rate (melanoma patients): reduced death rate
estimated patient number with poor outcome [1]: 8.5
actual patient number with poor outcome [1]: 8

CC(=O)OCOC(=O)CN(CC(=O)OCOC(C)=O)c1ccccc1OCCOc1ccccc1N(CC(=O)OCOC(C)=O)CC(=O)OCOC(C)=O [BAPTA-AM]
HRH1-mediated membrane VISTA expression (VISTA+ BMDMs; WT TAMs, BAPTA-AM): reduced HRH1-mediated membrane VISTA expression

CN(C)C(=N)N=C(N)N [Metformin]
estimated patient number with poor outcome [1]: 3.5
actual patient number with poor outcome [1]: 4

CC1(C)S[C@@H]2[C@H](NC(=O)[C@H](N)c3ccccc3)C(=O)N2[C@H]1C(=O)O [ampicillin]
death rate (melanoma patients): increased death rate

C[C@H](CCC(=O)O)C[C@H](C)C[C@H](C)C(=O)/C=C(\O)[C@H](C)C[C@H](C)C/C=C/[C@@H](C)[C@@H](O)[C@@H](C)[C@@H](O)C[C@@H]1CC[C@@](C)([C@H]2CC[C@@](C)([C@@H](C)O)O2)O1 [ionomycin]
cell-surface VISTA expression (VISTA+ BMDMs; HRH1-/- TAMs, ionomycin): increased cell-surface VISTA expression

B1: Camrelizumab (antibody, chains of the INN, looked up, V domains shown)
VH: EVQLVESGGGLVQPGGSLRLSCAASGFTFSSYMMSWVRQAPGKGLEWVATISGGGANTYYPDSVKGRFTISRDNAKNSLYLQMNSLRAEDTAVYYCARQLYYFDYWGQGTTVTVSS
VL: DIQMTQSPSSLSASVGDRVTITCLASQTIGTWLTWYQQKPGKAPKLLIYTATSLADGVPSRFSGSGSGTDFTLTISSLQPEDFATYYCQQVYSIPWTFGGGTKVEIK
notes: anti-PD1 treatment of the basket-trial patients (Camrelizumab)
disease control rate (DCR) [2, 3]: 44%
overall response rate (ORR) [2, 3]: 16%
disease control rate (DCR) [2, 4]: 88.3%
overall response rate (ORR) [2, 4]: 55.6%
Treatment response CR (lung cancer patients; Histamine High (≥0.6 ng/ml)): 0
Treatment response PD (lung cancer patients; Histamine High (≥0.6 ng/ml)): 6
Treatment response PR (lung cancer patients; Histamine High (≥0.6 ng/ml)): 2
Treatment response SD (lung cancer patients; Histamine High (≥0.6 ng/ml)): 3
Treatment response CR (lung cancer patients; Histamine Low (<0.3 ng/ml)): 1
Treatment response PD (lung cancer patients; Histamine Low (<0.3 ng/ml)): 2
Treatment response PR (lung cancer patients; Histamine Low (<0.3 ng/ml)): 9
Treatment response SD (lung cancer patients; Histamine Low (<0.3 ng/ml)): 6
Treatment response CR (lung cancer patients; [5]): 0
Treatment response PD (lung cancer patients; [5]): 6
Treatment response PR (lung cancer patients; [5]): 7
Treatment response SD (lung cancer patients; [5]): 6
Treatment response PD (colon cancer patients; Histamine High (≥0.6 ng/ml)): 4
Treatment response PR (colon cancer patients; Histamine High (≥0.6 ng/ml)): 2
Treatment response SD (colon cancer patients; Histamine High (≥0.6 ng/ml)): 2
Treatment response PD (colon cancer patients; [6]): 0
Treatment response PR (colon cancer patients; [6]): 0
Treatment response SD (colon cancer patients; [6]): 0
Treatment response PD (colon cancer patients; [5]): 1
Treatment response PR (colon cancer patients; [5]): 2
Treatment response SD (colon cancer patients; [5]): 1
Treatment response PD (breast cancer patients; Histamine High (≥ 0.6 ng/ml)): 4
Treatment response PR (breast cancer patients; Histamine High (≥ 0.6 ng/ml)): 0
Treatment response SD (breast cancer patients; Histamine High (≥ 0.6 ng/ml)): 2
Treatment response PD (breast cancer patients; [6]): 0
Treatment response PR (breast cancer patients; [6]): 0
Treatment response SD (breast cancer patients; [6]): 0
Treatment response PD (breast cancer patients; [5]): 1
Treatment response PR (breast cancer patients; [5]): 1
Treatment response SD (breast cancer patients; [5]): 2
